From article PMC4321732 (Structure (London, England : 1993), 2015) come the findings set out here.

*1 amine or outer side, *2 acyl side, *3 side chain or, on linkers, in order; H or OH if unused. Where no end group is shown, it is not given here. [ ]: non-standard residue; d: D form. KCme2 = N-dimethylated aminoethylcysteine, CN(C)CCSC[C@H](N[*:1])C(=O)[*:2]; Me2 = dimethyl group on the Lys side-chain amine

Test [1] addresses T1, tandem Tudor domain (TTD) of human 53BP1 (human, UniProt Q12888 1484-1603). Briefly: NMR titration.
Test [2] has as its target T1, tandem Tudor domain (TTD) of human 53BP1. Briefly: solution NMR structure.

T1 sequence (Q12888 1484-1603): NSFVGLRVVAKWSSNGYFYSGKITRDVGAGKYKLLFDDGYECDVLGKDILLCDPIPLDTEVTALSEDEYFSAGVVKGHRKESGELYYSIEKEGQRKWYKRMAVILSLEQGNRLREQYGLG

Take STSRHKK(Me2)LMFKT (peptide, UniProt P04637 376-387, looked up) [p53K382me2 peptide (residues S376-T387 of p53)]: the binding result in test [1] is “binds”. Still for that read-out and setting: to GHMSTSRHKCLMFKT (not fully specified (residue 10)) [p53KC382me2 peptide (recombinant, dimethyllysine analogue at 382)] belongs “binds”; to GHMSTSRHGCLMFKT (not fully specified (residue 10)) [p53K381GKC382me2 peptide], “binds”; to GHMSTSRHKCGMFKT (not fully specified (residue 10)) [p53KC382me2L383G peptide], “binds”. Turning to GHMSTSRGKCLMFKT (not fully specified (residue 10)) [p53H380GKC382me2 peptide], the binding result in test [1] is reported as “binds”. The same measure, in the same setting: the same measure for GHMSTSGHKCLMFKT (not fully specified (residue 10)) [p53R379GKC382me2 peptide]: “binds”. On the same count and under the same terms, to GHMSTSRHKCLMGKT (not fully specified (residue 10)) [p53KC382me2F385G peptide] belongs “binds”; to GHMRAHSSHLCSKKGQST (not fully specified (residue 11)) [p53KC370me2 peptide (recombinant, dimethyllysine analogue at 370)], “binds”; to GHMRAHSSHLCSGKGQST (not fully specified (residue 11)) [p53KC370me2K372G peptide], “binds”.

Consider GHMRAHSSHLCSKGGQST (not fully specified (residue 11)) [p53KC370me2K373G peptide], for which the binding result in test [1] is “binds”. The same measure, in the same setting: the same measure for GHMRAGSSHL[KCme2]SKKGQST [p53H365GKC370me2 peptide]: “binds”. As for GHMRAHSSHGCSKKGQST (not fully specified (residue 11)) [p53L369GKC370me2 peptide], in test [1], the binding result is “binds”. As to GHMRAHSSGLCSKKGQST (not fully specified (residue 11)) [p53H368GKC370me2 peptide], the binding result in test [1] is “binds”.

As to SSHLKSKKGQSTSRHKKLMFK (peptide, UniProt P04637 366-386, looked up, dimethyllysine at 370; dimethyllysine at 382) [p53K370me2K382me2 peptide (residues S366-K386)], the binding result in test [1] was “binds”. For RAHSSHLK(Me2)SKKGQST (peptide, UniProt P04637 363-377, looked up) [p53K370me2 peptide (residues R363-T377 of p53)], the binding result in test [2] was “binds”.
